# Measurements reported in article PMC11574045, “A cofactor-induced repressive type of transcription factor condensation can be induced by synthetic peptides to suppress tumorigenesis” (The EMBO Journal, 2024).
# B1: THRB (protein, UniProt P10828 1-461, looked up)
# Thyroid hormone receptor beta: MTPNSMTENGLTAWDKPKHCPDREHDWKLVGMSEACLHRKSHSERRSTLKNEQSSPHLIQTTWTSSIFHLDHDDVNDQSVSSAQTFQTEEKKCKGYIPSYLDKDELCVVCGDKATGYHYRCITCEGCKGFFRRTIQKNLHPSYSCKYEGKCVIDKVTRNQCQECRFKKCIYVGMATDLVLDDSKRLAKRKLIEENREKRRREELQKSIGHKPEPTDEEWELIKTVTEAHVATNAQGSHWKQKRKFLPEDIGQAPIVNAPEGGKVDLEAFSHFTKIITPAITRVVDFAKKLPMFCELPCEDQIILLKGCCMEIMSLRAAVRYDPESETLTLNGEMAVTRGQLKNGGLGVVSDAIFDLGMSLSSFNLDDTEVALLQAVLLMSSDRPGLACVERIEKYQDSFLLAFEHYINYRKHHVTHFWPKLLMKVTDLRMIGACHASRFLHMKVECPTELFPPLFLEVFED
# B2: THAP8 (protein, UniProt Q8NA92 1-274, looked up)
# THAP domain-containing …: MPKYCRAPNCSNTAGRLGADNRPVSFYKFPLKDGPRLQAWLQHMGCEHWVPSCHQHLCSEHFTPSCFQWRWGVRYLRPDAVPSIFSRGPPAKSQRRTRSTQKPVSPPPPLQKNTPLPQSPAIPVSGPVRLVVLGPTSGSPKTVATMLLTPLAPAPTPERSQPEVPAQQAQTGLGPVLGALQRRVRRLQRCQERHQAQLQALERLAQQLHGESLLARARRGLQRLTTAQTLGPEESQTFTIICGGPDIAMVLAQDPAPATVDAKPELLDTRIPSA
# B3: THRA (protein, UniProt P10827 1-490, looked up)
# Thyroid hormone receptor alpha: MEQKPSKVECGSDPEENSARSPDGKRKRKNGQCSLKTSMSGYIPSYLDKDEQCVVCGDKATGYHYRCITCEGCKGFFRRTIQKNLHPTYSCKYDSCCVIDKITRNQCQLCRFKKCIAVGMAMDLVLDDSKRVAKRKLIEQNRERRRKEEMIRSLQQRPEPTPEEWDLIHIATEAHRSTNAQGSHWKQRRKFLPDDIGQSPIVSMPDGDKVDLEAFSEFTKIITPAITRVVDFAKKLPMFSELPCEDQIILLKGCCMEIMSLRAAVRYDPESDTLTLSGEMAVKREQLKNGGLGVVSDAIFELGKSLSAFNLDDTEVALLQAVLLMSTDRSGLLCVDKIEKSQEAYLLAFEHYVNHRKHNIPHFWPKLLMKEREVQSSILYKGAAAEGRPGGSLGVHPEGQQLLGMHVVQGPQVRQLEQQLGEAGSLQGPVLQHQSPKSPQQRLLELLHRSGILHARAVCGEDDSSEADSPSSSEEEPEVCEDLAGNAASP
# B4: THAP6 (protein, UniProt Q8TBB0 1-222, looked up)
# THAP domain-containing …: MVKCCSAIGCASRCLPNSKLKGLTFHVFPTDENIKRKWVLAMKRLDVNAAGIWEPKKGDVLCSRHFKKTDFDRSAPNIKLKPGVIPSIFDSPYHLQGKREKLHCRKNFTLKTVPATNYNHHLVGASSCIEEFQSQFIFEHSYSVMDSPKKLKHKLDHVIGELEDTKESLRNVLDREKRFQKSLRKTIRELKDECLISQETANRLDTFCWDCCQESIEQDYIS
# B5: TIEG (protein, UniProt Q13118 1-480, looked up)
# Krueppel-like factor 10: MLNFGASLQQTAEERMEMISERPKESMYSWNKTAEKSDFEAVEALMSMSCSWKSDFKKYVENRPVTPVSDLSEEENLLPGTPDFHTIPAFCLTPPYSPSDFEPSQVSNLMAPAPSTVHFKSLSDTAKPHIAAPFKEEEKSPVSAPKLPKAQATSVIRHTADAQLCNHQTCPMKAASILNYQNNSFRRRTHLNVEAARKNIPCAAVSPNRSKCERNTVADVDEKASAALYDFSVPSSETVICRSQPAPVSPQQKSVLVSPPAVSAGGVPPMPVICQMVPLPANNPVVTTVVPSTPPSQPPAVCPPVVFMGTQVPKGAVMFVVPQPVVQSSKPPVVSPNGTRLSPIAPAPGFSPSAAKVTPQIDSSRIRSHICSHPGCGKTYFKSSHLKAHTRTHTGEKPFSCSWKGCERRFARSDELSRHRRTHTGEKKFACPMCDRRFMRSDHLTKHARRHLSAKKLPNWQMEVSKLNDIALPPTPAPTQ
# System: HEK293FT cells transfected with TF library
# Assay: Screening of TF condensates based on fluorescent puncta
# Assay type: cell-based
# Settings: Figure 1B numerical data; TF library screen, one value per transcriptional factor
# Summary of the method: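 HEK293FT, PEI transfection of TF library, 60 h; ±glucose 12 h; 4% PFA fix, 0.05% Triton X-100 permeabilization, 5% BSA block; anti-Flag/anti-GAL4 overnight at 4 °C, Alexa 488 secondary 1 h; high-content imaging, 50 fields/well.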
row,Molecule,Z score of condensed fraction
1,B1,-0.3414
2,B2,1.115
3,B3,-0.4575
4,B4,2.571
5,B5,1.047
